Source: US7056679 (ANTYRA, dated 2006)

Tests used:
DGI-2 polypeptide [1] = molecular target: T1, DGI-2 polypeptide (UniProt Q15004 1-111, limits assumed); test: phage ELISA, 405 nm; DGI-2 coated
T1 construct: Vector-derived residues or tag of pIVEX2.3 are not described for this construct; also called KIAA0101
T1 sequence (looked up): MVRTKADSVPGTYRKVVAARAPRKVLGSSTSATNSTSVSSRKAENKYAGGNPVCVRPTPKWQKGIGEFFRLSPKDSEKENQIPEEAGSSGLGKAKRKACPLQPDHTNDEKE
Protocol: (§1) For analysis of individual target binders, colonies were picked and phage prepared as described above using helper phage, M13KO7. Ninety-six-well microtiter plates were coated with 500 ng/well of specific target protein, 500 ng/well lactate dehydrogenase (LDH) irrelevant or non-specific target, 500 ng/well of positive control antibody raised against ETAG, and negative control of non-fat milk powder-PBS 2% at 4° C. overnight. Plates were then blocked with 350 microliters/well PBS containing 2% non-fat milk for 1 hr at room temperature. One hundred microliters per well of phage from isolated clones were added and plates were incubated at room temperature for 2 hr after centrifuging samples for 20 minutes at 3500 rpm at 4° C. The phage solution was then removed, and the wells were washed three times with PBS at room temperature. Antibody raised against M13 conjugated to horseradish peroxidase (Pharmacia) was diluted 1:3000 in PBS-Tween and added to each well (100 µl/well). Incubation was for 1 hr at room temperature, followed by washing with PBS-(0.5%) Tween 3 times as described. Color was developed by addition of ABTS solution (100 µl/well; Boehringer, Indianapolis, Ind.). Plates were analyzed at 405 nm. A clone was considered "positive" if the $A405$ of the well was $\geq$2-fold over background.

[2] = molecular target: T2, antibody raised against ETAG; test: phage ELISA, 405 nm; anti-E-tag antibody coated
T2 construct: read-out of display; also called E-tag antibody; E tag antibody
Protocol: as §1

DGI-2 polypeptide [3] = molecular target: T1, DGI-2 polypeptide; test: phage ELISA, 405 nm; DGI-2 signal over LDH signal
Protocol: as §1

B1: DGL-2-40F-3-D10 (peptide)
peptide: TLVTEGNKGSVKAHKDIGVWQLWWDWLSVTDSETVGRVSHAAAGAPVPYPDPLEPRP
notes: not shown: phage gene III coat protein (pCANTAB5E)
DGI-2 (OD) (DGI-2 polypeptide [1]): 1.5 OD
ETAG (OD) [2]: 10.3 OD
DGI-2/LDH (OD) (DGI-2 polypeptide [3]): 1.7 ratio

B2: DGI-2-20F-3-C2 (peptide)
peptide: MAVLPAARDFGGVVQGGVSGAAAGAPVPYPDPLEPRP
notes: as for B1
DGI-2 (OD) (DGI-2 polypeptide [1]): 1.3 OD
ETAG (OD) [2]: 11.5 OD
DGI-2/LDH (OD) (DGI-2 polypeptide [3]): 1.3 ratio

B3: DGI-2-20F-3-A6 (peptide)
peptide: FSSTGILLRSGRATAVGHVTAAAGAPVPYPDPLEPRP
notes: as for B1
DGI-2 (OD) (DGI-2 polypeptide [1]): 1.5 OD
ETAG (OD) [2]: 13.2 OD
DGI-2/LDH (OD) (DGI-2 polypeptide [3]): 1.4 ratio

B4: DGI-2-40F-3-C52 (peptide)
peptide: GLLFTSSPYQCFWVHCTLTMSPLSVLGDLSSTIGRMRASRAAAGAPVPYPDPLEPRP
notes: as for B1
DGI-2 (OD) (DGI-2 polypeptide [1]): 1 OD
ETAG (OD) [2]: 4.6 OD
DGI-2/LDH (OD) (DGI-2 polypeptide [3]): 1.3 ratio

B5: DGI-2-40F-3-D9 (peptide)
peptide: RRTSADTDQLSRWEGAQAFSSLRSALSERLDSLRPGLPPSAAAGAPVPYPDPLEPRP
notes: as for B1
DGI-2 (OD) (DGI-2 polypeptide [1]): 1.1 OD
ETAG (OD) [2]: 15.8 OD
DGI-2/LDH (OD) (DGI-2 polypeptide [3]): 1.4 ratio

B6: DGI-2-40F-3-A7 (peptide)
peptide: CAYRWGLFRGPGRVDYDLQVVGIMMWPGPIPDRSSRGSVAAAAGAPVPYPDPLEPRP
notes: as for B1
DGI-2 (OD) (DGI-2 polypeptide [1]): 0.9 OD
ETAG (OD) [2]: 8.7 OD
DGI-2/LDH (OD) (DGI-2 polypeptide [3]): 1.1 ratio

B7: DGI-2-40F-3-B1 (peptide)
peptide: HGTRLRGVDYVMTWAGWQGYSSRKHVQQAVAGSSPGSDELAAAGAPVPYPDPLEPRP
notes: as for B1
DGI-2 (OD) (DGI-2 polypeptide [1]): 0.8 OD
ETAG (OD) [2]: 6.3 OD
DGI-2/LDH (OD) (DGI-2 polypeptide [3]): 1.2 ratio

B8: DGI-2-40F-3-A1 (SEQ ID NO: 187) (peptide)
peptide: QYFARGSFQFGLSHVLSAAAAFHLYVFCKRLSRGFGIKDDAAAGAPVPYPDPLEPRP
notes: as for B1
DGI-2 (OD) (DGI-2 polypeptide [1]): 0.8 OD
ETAG (OD) [2]: 2.4 OD
DGI-2/LDH (OD) (DGI-2 polypeptide [3]): 1.1 ratio

B9: DGI-2-40F-3-C7 (peptide)
peptide: HPWVTNMLVFQRPPPPGFWLSDTTPRQRNGLGQVERPSVDAAAGAPVPYPDPLEPRP
notes: as for B1
DGI-2 (OD) (DGI-2 polypeptide [1]): 1.2 OD
ETAG (OD) [2]: 8.8 OD
DGI-2/LDH (OD) (DGI-2 polypeptide [3]): 1.5 ratio

B10: DGI-2-40F-3-B4 (peptide)
peptide: LWLPCGLLVRPAQFYFYFSPLRHFLSSSVGSLSFPLSLLVAAAGAPVPYPDPLEPRP
notes: as for B1
DGI-2 (OD) (DGI-2 polypeptide [1]): 1 OD
ETAG (OD) [2]: 1.5 OD
DGI-2/LDH (OD) (DGI-2 polypeptide [3]): 1.1 ratio

B11: DGI-2-20F-3-C3 (peptide)
peptide: FSSVLGLLDRRGVPVVVGEDAAAGAPVPYPDPLEPRP
notes: as for B1
DGI-2 (OD) (DGI-2 polypeptide [1]): 1.1 OD
ETAG (OD) [2]: 11.6 OD
DGI-2/LDH (OD) (DGI-2 polypeptide [3]): 1.1 ratio

B12: DGI-2-20C-3-D12 (peptide)
peptide: LVIQCSASVVACDLYWNYVGCLAAGAAAGAPVPYPDPLEPRP
notes: as for B1
DGI-2 (OD) (DGI-2 polypeptide [1]): 1.1 OD
ETAG (OD) [2]: 3.6 OD
DGI-2/LDH (OD) (DGI-2 polypeptide [3]): 1.1 ratio

B13: DGI-2-40F-3-B72 (peptide)
peptide: PKDGAAFKGSDFIQGGQTVMERAPALWWRDGGGQWEAPSTAAAGAPVPYPDPLEPRP
notes: as for B1
DGI-2 (OD) (DGI-2 polypeptide [1]): 1 OD
ETAG (OD) [2]: 10.4 OD
DGI-2/LDH (OD) (DGI-2 polypeptide [3]): 1.3 ratio

B14: DGI-2-20R-4-G32 (peptide)
peptide: LSVFRPGQFPHVGARGVSRTAAAGAPVPYPDPLEPRP
notes: as for B1
DGI-2 (OD) (DGI-2 polypeptide [1]): 1.4 OD
ETAG (OD) [2]: 11 OD
DGI-2/LDH (OD) (DGI-2 polypeptide [3]): 1.2 ratio

B15: DGI-2-20R-4-E5 (peptide)
peptide: LHRLGQSMGGTLDHLQGWGVAAAGAPVPYPDPLEPRP
notes: as for B1
DGI-2 (OD) (DGI-2 polypeptide [1]): 1.2 OD
ETAG (OD) [2]: 17.9 OD
DGI-2/LDH (OD) (DGI-2 polypeptide [3]): 1.1 ratio

B16: DGI-2-40F-3-B95 (peptide)
peptide: DYKTCVSQHVHPLFGEYFYHKVTHMSILSPTFRVTSLYGKAAAGAPVPYPDPLEPRP
notes: as for B1
DGI-2 (OD) (DGI-2 polypeptide [1]): 1 OD
ETAG (OD) [2]: 5.4 OD
DGI-2/LDH (OD) (DGI-2 polypeptide [3]): 1.2 ratio

B17: DGI-2-20R-4-G8 (peptide)
peptide: GMWIRPNGHMFLQGGYTARSAAAGAPVPYPDPLEPRP
notes: as for B1
DGI-2 (OD) (DGI-2 polypeptide [1]): 1.5 OD
ETAG (OD) [2]: 14.5 OD
DGI-2/LDH (OD) (DGI-2 polypeptide [3]): 1.4 ratio

B18: DGI-2-20R-3-D5 (peptide)
peptide: VAFGEQIRVAMAGTLWQRWRAAAGAPVPYPDPLEPRP
notes: as for B1
DGI-2 (OD) (DGI-2 polypeptide [1]): 1.5 OD
ETAG (OD) [2]: 8.5 OD
DGI-2/LDH (OD) (DGI-2 polypeptide [3]): 1.4 ratio

B19: DGI-2-40F-3-A8 (peptide)
peptide: GQISLAGVAVCSSERMLLAFSSRVFLPGLKVPVTTSQRGSAAAGAPVPYPDPLEPRP
notes: as for B1
DGI-2 (OD) (DGI-2 polypeptide [1]): 0.8 OD
ETAG (OD) [2]: 1.5 OD
DGI-2/LDH (OD) (DGI-2 polypeptide [3]): 1.1 ratio

B20: DGI-2-20F-3-D112 (peptide)
peptide: YDQVWNSLLAAVLGGQELVNAAAGAPVPYPDPLEPRP
notes: as for B1
DGI-2 (OD) (DGI-2 polypeptide [1]): 1.4 OD
ETAG (OD) [2]: 19.9 OD
DGI-2/LDH (OD) (DGI-2 polypeptide [3]): 1.4 ratio

B21: DGI-2-40F-3-B5 (peptide)
peptide: RSRSSSGASGSMLRVQNHMVLGSWMVRQPMGSMTPFHGHGAAAGAPVPYPDPLEPRP
notes: as for B1
DGI-2 (OD) (DGI-2 polypeptide [1]): 1 OD
ETAG (OD) [2]: 9.2 OD
DGI-2/LDH (OD) (DGI-2 polypeptide [3]): 1.2 ratio

B22: DGI-2-40F-3-B6 (peptide)
peptide: QSNVWVLVGVIMQGVWYQRQHYCVYVMLLSDQVSVLLAVAAAAGAPVPYPDPLEPRP
notes: as for B1
DGI-2 (OD) (DGI-2 polypeptide [1]): 0.9 OD
ETAG (OD) [2]: 1.8 OD
DGI-2/LDH (OD) (DGI-2 polypeptide [3]): 1.2 ratio

B23: DGI-2-40F-3-D1 (peptide)
peptide: MGQGFHYNRQPYMSHQCYAFTFSTPFLDGDRIPHGVSRGLAAAGAPVPYPDPLEPRP
notes: as for B1
DGI-2 (OD) (DGI-2 polypeptide [1]): 0.8 OD
ETAG (OD) [2]: 4.1 OD
DGI-2/LDH (OD) (DGI-2 polypeptide [3]): 1 ratio

B24: DGI-2-20F-3-B1 (peptide)
peptide: LSRIWRGVIESAREVESRGIAAAGAPVPYPDPLEPRP
notes: as for B1
DGI-2 (OD) (DGI-2 polypeptide [1]): 1.2 OD
ETAG (OD) [2]: 11.4 OD
DGI-2/LDH (OD) (DGI-2 polypeptide [3]): 1.2 ratio

B25: DGI-2-40F-3-B10 (peptide)
peptide: MQAASTLSTYMGAIRMGYPILHWDRGGVQRVDPGLYRGRVAAAGAPVPYPDPLEPRP
notes: as for B1
DGI-2 (OD) (DGI-2 polypeptide [1]): 1.3 OD
ETAG (OD) [2]: 4.8 OD
DGI-2/LDH (OD) (DGI-2 polypeptide [3]): 1.4 ratio

B26: DGI-2-40F-3-A12 (peptide)
peptide: RRTQPAYRSGADDRTSGFYCYVTSALSAGAWMPFLPRRLAAAAGAPVPYPDPLEPRP
notes: as for B1
DGI-2 (OD) (DGI-2 polypeptide [1]): 0.9 OD
ETAG (OD) [2]: 4.6 OD
DGI-2/LDH (OD) (DGI-2 polypeptide [3]): 1.1 ratio

B27: DGI-2-40F-3-D3 (peptide)
peptide: VQFAMTLSSRLWQHARHPLTDDAPPTVSFGTRRETLAGKAAAAGAPVPYPDPLEPRP
notes: as for B1
DGI-2 (OD) (DGI-2 polypeptide [1]): 0.9 OD
ETAG (OD) [2]: 0.9 OD
DGI-2/LDH (OD) (DGI-2 polypeptide [3]): 1.1 ratio

B28: DGI-2-40F-3-A24 (peptide)
peptide: RCFQDGRMLALSPTYLIRRSVSPLVVGPLPTPAAAGAPVPYPDPLEPRP
notes: as for B1
DGI-2 (OD) (DGI-2 polypeptide [1]): 1.3 OD
ETAG (OD) [2]: 11.7 OD
DGI-2/LDH (OD) (DGI-2 polypeptide [3]): 1.4 ratio
